Data on three molecules can be found in publication PMC11437077.

Test [1] concerns the target T1, mouse PD-L2 with C-terminal biotin, Q9WUL5.
T1 chain: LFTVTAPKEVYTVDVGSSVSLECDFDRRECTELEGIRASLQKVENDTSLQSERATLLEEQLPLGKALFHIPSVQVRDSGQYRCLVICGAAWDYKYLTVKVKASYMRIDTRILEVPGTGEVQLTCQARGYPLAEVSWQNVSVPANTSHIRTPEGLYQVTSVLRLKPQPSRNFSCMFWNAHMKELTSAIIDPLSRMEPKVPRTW
The test can be described thus: dynamic force spectroscopic analysis with BFP. Particulars: chain shown with the change.

Test [2] addresses T1, mouse PD-L2 with C-terminal biotin, …. The experiment in a line: 2D effective affinity measurement, PD-L2-coated RBCs against PD-1-expressing CHO cells. Particulars: chain shown with the change, parent: est. 0.00098, read off a plot.
Test [3] has the same target. The experiment in a line: bond lifetime vs force measurement, single bonds (BFP). Conditions: chain shown with the change, read off a plot.
Test [4] shares this target. The test can be described thus: effective bond lifetime (bond lifetime x bond survival probability, BFP data). Conditions: chain shown with the change, read off a plot.

B1: mouse PD-1 wild type expressed on CHO cells, Q02242 A132K (protein)
chain: LEVPNGPWRSLTFYPAWLTVSEGANATFTCSLSNWSEDLMLNWNRLSPSNQTEKQAAFCNGLSQPVQDARFQIIQLPNRHDFHMNILDTRRNDSGIYLCGAISLHPKKKIEESPGAELVVTERILETSTRYPSPSPKPEGRFQGMVIGIMSALVGIPVLLLLAWALAVFCSTSMSEARGAGSKDDTLKEEPSAAPVPSVAYEELDFQGREKTPELPTACVHTEYATIVFTEGLGASAMGRRGSADGLQGPRPPRHEDGHCSWPL
B1 registered an other: F1/2 (rupture force) in test [1] (n = 270 events) of 9.5 pN. Moreover, the other: AcKa (2D effective affinity) in test [2] (n = 12 cell pairs) worked out at 0.00085 µm^4.

B2: mouse PD-1 wild type expressed on CHO cells, Q02242 K131A (protein)
chain: LEVPNGPWRSLTFYPAWLTVSEGANATFTCSLSNWSEDLMLNWNRLSPSNQTEKQAAFCNGLSQPVQDARFQIIQLPNRHDFHMNILDTRRNDSGIYLCGAISLHPAAKIEESPGAELVVTERILETSTRYPSPSPKPEGRFQGMVIGIMSALVGIPVLLLLAWALAVFCSTSMSEARGAGSKDDTLKEEPSAAPVPSVAYEELDFQGREKTPELPTACVHTEYATIVFTEGLGASAMGRRGSADGLQGPRPPRHEDGHCSWPL
On to B2, for which the other: F1/2 (rupture force) in test [1] (n = 210 events) is 9.4 pN. Besides, the other: AcKa (2D effective affinity) in test [2] (n = 12 cell pairs) came to 0.0011 µm^4.

B3: mouse PD-1 wild type expressed on CHO cells, Q02242 L128A; K131A (protein)
chain: LEVPNGPWRSLTFYPAWLTVSEGANATFTCSLSNWSEDLMLNWNRLSPSNQTEKQAAFCNGLSQPVQDARFQIIQLPNRHDFHMNILDTRRNDSGIYLCGAISAHPAAKIEESPGAELVVTERILETSTRYPSPSPKPEGRFQGMVIGIMSALVGIPVLLLLAWALAVFCSTSMSEARGAGSKDDTLKEEPSAAPVPSVAYEELDFQGREKTPELPTACVHTEYATIVFTEGLGASAMGRRGSADGLQGPRPPRHEDGHCSWPL
Molecule B3 yielded an other: F1/2 (rupture force) in test [1] (n = 345 events) of 9.7 pN. Moreover, the other: bond lifetime in test [3] (force bin est. 2.2 pN) stood at 0.16 s; in test [3] (force bin est. 4.3 pN) it was 0.15 s; in test [3] (force bin est. 11 pN), 0.05 s. Moreover, the other: effective bond lifetime came out at 0.16 s in test [4] (force bin est. 2.2 pN), 0.14 s in test [4] (force bin est. 4.3 pN), 0.04 s in test [4] (force bin est. 8.3 pN) and 0.015 s in test [4] (force bin est. 11 pN). Besides, the other: AcKa (2D effective affinity) in test [2] (n = 13 cell pairs) is 0.00088 µm^4.
